In US20250171562A1:
Positions count from the first letter of the chain named. Names and notes keep the numbering of the source.

B1: NIgG4A1A1(G4S)2 (Fc fusion)
chain 1: EVQLLESGGGLVQPGGSLRLSCAASGFTFGNYDMAWVRQAPGKRPEWVSSIDTGGDITHYADSVKGRFTISRDNAKNTLYLQMNSLRPEDTAVYWCATDEEYALGPNEFDYYGQGTLVTVSSGGGGSGGGGSGPPCPPCPAPEFLGGPSVFLFPPKPKDTLMISRTPEVTCVVVDVSQEDPEVQFNWYVDGVEVHNAKTKPREEQFNSTYRVVSVLTVLHQDWLNGKEYKCKVSNKGLPSSIEKTISKAKGQPREPQVYTLPPCQEEMTKNQVSLWCLVKGFYPSDIAVEWESNGQPENNYKTTPPVLDSDGSFFLYSRLTVDKSRWQEGNVFSCSVMHEALHNHYTQKSLSLSLGK
chain 2: B1 chain 1 with Y259C, C264S, W276S, L278A, Y317V
B2: CIgE4A1A1(GS)1 (Fc fusion)
chain 1: GPPCPPCPAPEFLGGPSVFLFPPKPKDTLMISRTPEVTCVVVDVSQEDPEVQFNWYVDGVEVHNAKTKPREEQFNSTYRVVSVLTVLHQDWLNGKEYKCKVSNKGLPSSIEKTISKAKGQPREPQVYTLPPCQEEMTKNQVSLWCLVKGFYPSDIAVEWESNGQPENNYKTTPPVLDSDGSFFLYSRLTVDKSRWQEGNVFSCSVMHEALHNHYTQKSLSLSLGKGGGGSEVQLLESGGGLVQPGGSLRLSCAASGFTFGNYDMAWVRQAPGKRPEWVSSIDTGGDITHYADSVKGRFTISRDNAKNTLYLQMNSLRPEDTAVYWCATDEEYALGPNEFDYYGQGTLVTVSS
chain 2: B2 chain 1 with Y127C, C132S, W144S, L146A, Y185V
B3: CIgG4A1A1(RS) (Fc fusion)
chain 1: GPPCPPCPAPEFLGGPSVFLFPPKPKDTLMISRTPEVTCVVVDVSQEDPEVQFNWYVDGVEVHNAKTKPREEQFNSTYRVVSVLTVLHQDWLNGKEYKCKVSNKGLPSSIEKTISKAKGQPREPQVYTLPPCQEEMTKNQVSLWCLVKGFYPSDIAVEWESNGQPENNYKTTPPVLDSDGSFFLYSRLTVDKSRWQEGNVFSCSVMHEALHNHYTQKSLSLSLGKRSEVQLLESGGGLVQPGGSLRLSCAASGFTFGNYDMAWVRQAPGKRPEWVSSIDTGGDITHYADSVKGRFTISRDNAKNTLYLQMNSLRPEDTAVYWCATDEEYALGPNEFDYYGQGTLVTVSS
chain 2: B3 chain 1 with Y127C, C132S, W144S, L146A, Y185V
B4: NIgG4A1A1(RS) (Fc fusion)
chain 1: EVQLLESGGGLVQPGGSLRLSCAASGFTFGNYDMAWVRQAPGKRPEWVSSIDTGGDITHYADSVKGRFTISRDNAKNTLYLQMNSLRPEDTAVYWCATDEEYALGPNEFDYYGQGTLVTVSSRSGPPCPPCPAPEFLGGPSVFLFPPKPKDTLMISRTPEVTCVVVDVSQEDPEVQFNWYVDGVEVHNAKTKPREEQFNSTYRVVSVLTVLHQDWLNGKEYKCKVSNKGLPSSIEKTISKAKGQPREPQVYTLPPCQEEMTKNQVSLWCLVKGFYPSDIAVEWESNGQPENNYKTTPPVLDSDGSFFLYSRLTVDKSRWQEGNVFSCSVMHEALHNHYTQKSLSLSLGK
chain 2: B4 chain 1 with Y251C, C256S, W268S, L270A, Y309V
B5: NIgG4A1A1(G4S)1 (Fc fusion)
chain 1: EVQLLESGGGLVQPGGSLRLSCAASGFTFGNYDMAWVRQAPGKRPEWVSSIDTGGDITHYADSVKGRFTISRDNAKNTLYLQMNSLRPEDTAVYWCATDEEYALGPNEFDYYGQGTLVTVSSGGGGSGPPCPPCPAPEFLGGPSVFLFPPKPKDTLMISRTPEVTCVVVDVSQEDPEVQFNWYVDGVEVHNAKTKPREEQFNSTYRVVSVLTVLHQDWLNGKEYKCKVSNKGLPSSIEKTISKAKGQPREPQVYTLPPCQEEMTKNQVSLWCLVKGFYPSDIAVEWESNGQPENNYKTTPPVLDSDGSFFLYSRLTVDKSRWQEGNVFSCSVMHEALHNHYTQKSLSLSLGK
chain 2: B5 chain 1 with Y254C, C259S, W271S, L273A, Y312V
B6: CIgE4A1A1(GS)2 (Fc fusion)
chain 1: GPPCPPCPAPEFLGGPSVFLFPPKPKDTLMISRTPEVTCVVVDVSQEDPEVQFNWYVDGVEVHNAKTKPREEQFNSTYRVVSVLTVLHQDWLNGKEYKCKVSNKGLPSSIEKTISKAKGQPREPQVYTLPPCQEEMTKNQVSLWCLVKGFYPSDIAVEWESNGQPENNYKTTPPVLDSDGSFFLYSRLTVDKSRWQEGNVFSCSVMHEALHNHYTQKSLSLSLGKGGGGSGGGGSEVQLLESGGGLVQPGGSLRLSCAASGFTFGNYDMAWVRQAPGKRPEWVSSIDTGGDITHYADSVKGRFTISRDNAKNTLYLQMNSLRPEDTAVYWCATDEEYALGPNEFDYYGQGTLVTVSS
chain 2: B6 chain 1 with Y127C, C132S, W144S, L146A, Y185V
B7: NIgG4B1A1(G4S)3 (Fc fusion)
chain 1: QVQLQESGGGLVQTGGSLRLSCAVHGRTFSNTGMGWFRQAPGNERQFVAIISPSGTSTYYADSVKGRFTISRDPAKNTVYLQMNSLKMDDTAVYYCAASYGSNWSTLRHQRRNEYDAWGQGTQVAVSGGGGSGGGGSGGGGSGPPCPPCPAPEFLGGPSVFLFPPKPKDTLMISRTPEVTCVVVDVSQEDPEVQFNWYVDGVEVHNAKTKPREEQFNSTYRVVSVLTVLHQDWLNGKEYKCKVSNKGLPSSIEKTISKAKGQPREPQVYTLPPCQEEMTKNQVSLWCLVKGFYPSDIAVEWESNGQPENNYKTTPPVLDSDGSFFLYSRLTVDKSRWQEGNVFSCSVMHEALHNHYTQKSLSLSLGK
chain 2: EVQLLESGGGLVQPGGSLRLSCAASGFTFGNYDMAWVRQAPGKRPEWVSSIDTGGDITHYADSVKGRFTISRDNAKNTLYLQMNSLRPEDTAVYWCATDEEYALGPNEFDYYGQGTLVTVSSGGGGSGGGGSGGGGSGPPCPPCPAPEFLGGPSVFLFPPKPKDTLMISRTPEVTCVVVDVSQEDPEVQFNWYVDGVEVHNAKTKPREEQFNSTYRVVSVLTVLHQDWLNGKEYKCKVSNKGLPSSIEKTISKAKGQPREPQVCTLPPSQEEMTKNQVSLSCAVKGFYPSDIAVEWESNGQPENNYKTTPPVLDSDGSFFLVSRLTVDKSRWQEGNVFSCSVMHEALHNHYTQKSLSLSLGK
B8: NIgG4A1A1(G4S)3 (Fc fusion)
chain 1: B7 chain 2 with C264Y, S269C, S281W, A283L, V322Y
chain 2: B7 chain 2

target: mixture of three Der p 2 specific recombinant human IgE clones H10, H12, P4E (human) (UniProt P01854); assay: RBL-SX38 IgE displacement, FACS
Sequence (P01854 other isoform, or with tags, fused parts or gaps): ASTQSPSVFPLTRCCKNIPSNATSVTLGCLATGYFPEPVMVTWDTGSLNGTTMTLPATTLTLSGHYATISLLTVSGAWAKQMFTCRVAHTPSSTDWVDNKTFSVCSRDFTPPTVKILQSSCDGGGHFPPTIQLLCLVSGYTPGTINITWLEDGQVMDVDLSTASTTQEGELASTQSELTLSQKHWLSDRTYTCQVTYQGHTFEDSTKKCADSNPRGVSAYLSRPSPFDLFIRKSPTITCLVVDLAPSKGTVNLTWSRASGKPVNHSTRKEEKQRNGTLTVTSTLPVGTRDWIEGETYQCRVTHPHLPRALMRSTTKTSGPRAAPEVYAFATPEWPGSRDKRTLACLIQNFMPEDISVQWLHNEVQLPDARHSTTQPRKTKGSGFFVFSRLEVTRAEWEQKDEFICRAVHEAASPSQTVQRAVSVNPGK

Max effect/effect 1 µM [%]	EC50 [nM]	Binder
36	–	B1
7	–	B2
11	–	B3
45	–	B4
44	–	B5
19	–	B6
99	2.6	B7
40	–	B8
